Experimental findings from article PMC7382281 (Proceedings of the National Academy of Sciences of the …, 2020) are described below.

Series [1] has as its target BRIL (apocytochrome b562RIL)-fusion of truncated AceI (residues 36 to 179) (A. baumannii). The experiment in a line: native MS.
The target in series [2] is BRIL (apocytochrome b562RIL)-fusion construct of truncated AceI (residues 36 to 179) (A. baumannii). The experiment in a line: native MS.
Series [3] has as its target AceI (Acinetobacter chlorhexidine efflux protein I), truncated form, residues 36 to 179, with C-term (A. baumannii). The experiment in a line: native MS.
For series [4], the target named is T1, AceI (Acinetobacter chlorhexidine efflux protein I) (Acinetobacter baumannii, UniProt P0DUT9).
T1 construct: amino acid residues 36 to 179, with a C-terminal hexahistidine tag
The series is described as follows: native mass spectrometry of purified protein in detergent. In kind it is binding.

The target of series [5] is AceR (Acinetobacter chlorhexidine efflux protein regulator) (Acinetobacter baumannii, UniProt P0DUU5). The experiment in a line: isothermal titration calorimetry (AceR^CTD); native MS titration (AceR^FL). Type of series: binding. An excerpt:
isothermal titration calorimetry (AceR^CTD); native MS titration (AceR^FL) on AceR (Acinetobacter chlorhexidine efflux protein regulator) | we used isothermal titration calorimetry.

In series [6] the target is AceI (Acinetobacter chlorhexidine efflux protein I) (Acinetobacter baumannii, UniProt P0DUT9, E15Q). The series is described as follows: native mass spectrometry of purified mutant. Type of series: binding.
In series [7] the target is BRIL (apocytochrome b562RIL)-fusion of full-length AceI (residues 1 to 179) (A. baumannii) (UniProt P0DUT9). The series is described as follows: native MS.
The target of series [8] is AceI (Acinetobacter chlorhexidine efflux protein I), truncated form, residues 36 to 179 with a C-ter (A. baumannii). The series is described as follows: native MS.
In series [9] the target is E15Q AceI mutant (A. baumannii). The series is described as follows: native MS.
The target in series [10] is BRIL (apocytochrome b562RIL)-fusion construct of full-length AceI (residues 1 to 179) (A. baumannii) (UniProt P0DUT9). The series is described as follows: native MS.
The target of series [11] is T2, AceRFL (BRIL-AceR full length) (Acinetobacter baumannii, UniProt P0DUU5 1-297).
T2 sequence: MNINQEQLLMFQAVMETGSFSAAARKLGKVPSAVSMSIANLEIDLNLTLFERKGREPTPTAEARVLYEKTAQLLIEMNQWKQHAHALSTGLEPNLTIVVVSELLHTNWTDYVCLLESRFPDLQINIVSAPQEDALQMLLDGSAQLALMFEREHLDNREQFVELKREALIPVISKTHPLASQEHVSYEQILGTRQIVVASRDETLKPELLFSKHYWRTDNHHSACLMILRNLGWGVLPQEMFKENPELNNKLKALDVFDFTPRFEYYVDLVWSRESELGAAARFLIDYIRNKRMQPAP
The series is described as follows: native MS; 2 uM AceRFL, 2 uM RS1, no chlorhexidine; one RS1 per dimer; native MS; 200 mM ammonium acetate, pH 8.0 (AceRFL-DNA); temperature not stated. As to conditions: protein: recombinant; tags: N-terminal BRIL (apocytochrome b562RIL) fusion; 6xHis; chain copies: 2; blunt.

For series [12], the target named is T2, AceRFL (BRIL-AceR full length). The experiment in a line: native MS; no chlorhexidine; one RS2 per dimer; native MS; 200 mM ammonium acetate, pH 8.0 (AceRFL-DNA); temperature not stated. The following applies: protein: recombinant; tags: N-terminal BRIL (apocytochrome b562RIL) fusion; 6xHis; chain copies: 2; blunt.
Series [13] deals with the molecule itself. The experiment in a line: native MS.
Series [14] deals with the molecule itself. The experiment in a line: native MS. This is another data set of the same source.
Series [15] concerns the molecule itself. The experiment in a line: native MS. The source holds these as a separate data set.

Values joined by “and” are separate entries in the source; they are usually repeats but may differ in a detail not shown here. Equal entries are not always repeated. Where two headings read alike, the source gives them in different places.

With “BRIL (apocytochrome b562RIL)-fusion of truncated AceI (residues 36 to 179) (domain or fragment)”, the stoichiometry N in series [1] came out at 2.

Turning to “BRIL (apocytochrome b562RIL)-fusion construct of truncated AceI (residues 36 to 179) (domain or fragment)”, the stoichiometry N in series [2] was 2.

For the molecule “AceI (Acinetobacter chlorhexidine efflux protein I), truncated form, residues 36 to 179, with C-term (domain or fragment)”, in series [3], the Kd turned out to be 0.92 µM and the stoichiometry N worked out at 2.

With `[H]/N=C(\N/C(=N/[H])NCCCCCCNC(=N)NC(=N)Nc1ccc(Cl)cc1)Nc1ccc(Cl)cc1` [chlorhexidine], the “native mass spectrometry of purified protein in detergent” value in series [4] is given as “when tested with chlorhexidine, we observed multiple low-occupancy binding of up to three chlorhexidine molecules”. Also, the Kd in series [5] was approximately 16 µM. Also, the “native mass spectrometry of purified mutant” value in series [6] was “E15Q mutant and found that the binding of chlorhexidine also increased the dimer population of the mutant”.

As for “BRIL (apocytochrome b562RIL)-fusion of full-length AceI (residues 1 to 179) (from UniProt P0DUT9 1-144) (natural protein)”, the stoichiometry N in [7] amounted to 2.

In [8], “AceI (Acinetobacter chlorhexidine efflux protein I), truncated form, residues 36 to 179 with a C-ter (domain or fragment)” came in with a Kd of 5.69 µM and a stoichiometry N of 2.

Regarding E15Q AceI mutant (domain or fragment), the Kd in [9] was 17.5 µM and 18.4 µM.

For the molecule “BRIL (apocytochrome b562RIL)-fusion construct of full-length AceI (residues 1 to 179) (from UniProt P0DUT9 1-144) (natural protein)”, the stoichiometry N in series [10] came out at 2.

B1: RS1 (site 1, 22 bp) (dsDNA)
DNA 1: TTTTTTAACTTTCTTGGACTAA
DNA 2: TTAGTCCAAGAAAGTTAAAAAA
As for B1, the binding result in [11] is listed as “binds”.

B2: RS2 (site 2, 34 bp) (dsDNA)
DNA 1: ACTCTTCAACAAGAACTAATTATAAGTAGACAGT
DNA 2: ACTGTCTACTTATAATTAGTTCTTGTTGAAGAGT
In the case of B2, the binding result in [12] was “binds”.

B3: AceR^CTD: inducer-binding domain of AceR (amino acid residues 90 to 297) (domain or fragment)
chain: GLEPNLTIVVVSELLHTNWTDYVCLLESRFPDLQINIVSAPQEDALQMLLDGSAQLALMFEREHLDNREQFVELKREALIPVISKTHPLASQEHVSYEQILGTRQIVVASRDETLKPELLFSKHYWRTDNHHSACLMILRNLGWGVLPQEMFKENPELNNKLKALDVFDFTPRFEYYVDLVWSRESELGAAARFLIDYIRNKRMQPAP
notes: source: E. coli C43(DE3), purified (HisTrap-HP)
On to B3, for which the “stoichiometry N” value in the series “native MS [13]” is 2.

B4: AceR^CTD: inducer-binding domain of AceR (amino acid residues 90 to 297) (domain or fragment)
chain: B3 chain
B4: the “stoichiometry N” value in the series “native MS [14]” was 2.

B5: AceR^FL: full-length AceR (Acinetobacter chlorhexidine efflux protein regulator) with a Bril fusion at the N terminus (natural protein)
chain: T2 sequence
notes: as for B3
With B5, the “stoichiometry N” value in “native MS [15]” is 4; in the series “native MS [13]”, 2 and 4.

B6: AceR^FL: full-length AceR (Acinetobacter chlorhexidine efflux protein regulator) with a Bril fusion at the N terminus (natural protein)
chain: T2 sequence
notes: source: expressed in high yields, purified
Consider B6, for which, in the series “native MS [14]”, the “stoichiometry N” value is 2 and 4.
